B1: Isoform 1 of Nucleoporin p54 (Homo sapiens), Q7Z3B4-1 (parent)
chain: MAFNFGAPSGTSGTAAATAAPAGGFGGFGTTSTTAGSAFSFSAPTNTGTTGLFGGTQNKGFGFGTGFGTTTGTSTGLGTGLGTGLGFGGFNTQQQQQTTLGGLFSQPTQAPTQSNQLINTASALSAPTLLGDERDAILAKWNQLQAFWGTGKGYFNNNIPPVEFTQENPFCRFKAVGYSCMPSNKDEDGLVVLVFNKKETEIRSQQQQLVESLHKVLGGNQTLTVNVEGTKTLPDDQTEVVIYVVERSPNGTSRRVPATTLYAHFEQANIKTQLQQLGVTLSMTRTELSPAQIKQLLQNPPAGVDPIIWEQAKVDNPDSEKLIPVPMVGFKELLRRLKVQDQMTKQHQTRLDIISEDISELQKNQTTSVAKIAQYKRKLMDLSHRTLQVLIKQEIQRKSGYAIQADEEQLRVQLDTIQGELNAPTQFKGRLNELMSQIRMQNHFGAVRSEERYYIDADLLREIKQHLKQQQEGLSHLISIIKDDLEDIKLVEHGLNETIHIRGGVFS
B2: Ligand of Numb protein X 2 (Homo sapiens), Q8N448 (parent)
chain: MGTTSDEMVSVEQTSSSSLNPLCFECGQQHWTRENHLYNYQNEVDDDLVCHICLQPLLQPLDTPCGHTFCYKCLRNFLQEKDFCPLDRKRLHFKLCKKSSILVHKLLDKLLVLCPFSSVCKDVMQRCDLEAHLKNRCPGASHRRVALERRKTSRTQAEIENENGPTLLDPAGTLSPEADCLGTGAVPVERHLTSASLSTWSEEPGLDNPAFEESAGADTTQQPLSLPEGEITTIEIHRSNPYIQLGISIVGGNETPLINIVIQEVYRDGVIARDGRLLAGDQILQVNNYNISNVSHNYARAVLSQPCNTLHLTVLRERRFGNRAHNHSDSNSPREEIFQVALHKRDSGEQLGIKLVRRTDEPGVFILDLLEGGLAAQDGRLSSNDRVLAINGHDLKYGTPELAAQIIQASGERVNLTIARPGKPQPGNTIREAGNHSSSSQHHTPPPYYSRPSSHKDLTQCVTCQEKHITVKKEPHESLGMTVAGGRGSKSGELPIFVTSVPPHGCLARDGRIKRGDVLLNINGIDLTNLSHSEAVAMLKASAASPAVALKALEVQIVEEATQNAEEQPSTFSENEYDASWSPSWVMWLGLPSTLHSCHDIVLRRSYLGSWGFSIVGGYEENHTNQPFFIKTIVLGTPAYYDGRLKCGDMIVAVNGLSTVGMSHSALVPMLKEQRNKVTLTVICWPGSLV
partner: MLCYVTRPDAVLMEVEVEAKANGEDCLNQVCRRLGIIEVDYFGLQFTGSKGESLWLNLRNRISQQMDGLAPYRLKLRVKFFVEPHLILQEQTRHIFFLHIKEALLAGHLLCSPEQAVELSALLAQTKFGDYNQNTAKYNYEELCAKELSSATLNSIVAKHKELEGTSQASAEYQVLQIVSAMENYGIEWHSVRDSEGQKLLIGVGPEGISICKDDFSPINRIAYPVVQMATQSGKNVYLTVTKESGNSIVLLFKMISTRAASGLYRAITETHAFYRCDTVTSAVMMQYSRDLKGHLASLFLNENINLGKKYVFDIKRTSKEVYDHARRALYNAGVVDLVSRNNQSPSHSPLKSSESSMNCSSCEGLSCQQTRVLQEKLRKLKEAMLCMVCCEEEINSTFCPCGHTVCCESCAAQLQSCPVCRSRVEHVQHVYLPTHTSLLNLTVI
B3: Docking protein 3 (Homo sapiens), Q7L591 (parent)
chain: MTRGARLRSDARAQLNQLSLDGGTGSGQKGKCEEFPSSLSSVSPGLEAAALLLAVTMDPLETPIKDGILYQQHVKFGKKCWRKVWALLYAGGPSGVARLESWEVRDGGLGAAGDRSAGPGRRGERRVIRLADCVSVLPADGESCPRDTGAFLLTTTERSHLLAAQHRQAWMGPICQLAFPGTGEASSGSTDAQSPKRGLVPMEENSIYSSWQEVGEFPVVVQRTEAATRCQLKGPALLVLGPDAIQLREAKGTQALYSWPYHFLRKFGSDKGVFSFEAGRRCHSGEGLFAFSTPCAPDLCRAVAGAIARQRERLPELTRPQPCPLPRATSLPSLDTPGELREMPPGPEPPTSRKMHLAEPGPQSLPLLLGPEPNDLASGLYASVCKRASGPPGNEHLYENLCVLEASPTLHGGEPEPHEGPGSRSPTTSPIYHNGQDLSWPGPANDSTLEAQYRRLLELDQVEGTGRPDPQAGFKAKLVTLLSRERRKGPAPCDRP
B4: Centrosomal protein of 55 kDa (Homo sapiens), Q53EZ4 (parent)
chain: MSSRSTKDLIKSKWGSKPSNSKSETTLEKLKGEIAHLKTSVDEITSGKGKLTDKERHRLLEKIRVLEAEKEKNAYQLTEKDKEIQRLRDQLKARYSTTTLLEQLEETTREGERREQVLKALSEEKDVLKQQLSAATSRIAELESKTNTLRLSQTVAPNCFNSSINNIHEMEIQLKDALEKNQQWLVYDQQREVYVKGLLAKIFELEKKTETAAHSLPQQTKKPESEGYLQEEKQKCYNDLLASAKKDLEVERQTITQLSFELSEFRRKYEETQKEVHNLNQLLYSQRRADVQHLEDDRHKTEKIQKLREENDIARGKLEEEKKRSEELLSQVQFLYTSLLKQQEEQTRVALLEQQMQACTLDFENEKLDRQHVQHQLHVILKELRKARNQITQLESLKQLHEFAITEPLVTFQGETENREKVAASPKSPTAALNESLVECPKCNIQYPATEHRDLLVHVEYCSK
partner: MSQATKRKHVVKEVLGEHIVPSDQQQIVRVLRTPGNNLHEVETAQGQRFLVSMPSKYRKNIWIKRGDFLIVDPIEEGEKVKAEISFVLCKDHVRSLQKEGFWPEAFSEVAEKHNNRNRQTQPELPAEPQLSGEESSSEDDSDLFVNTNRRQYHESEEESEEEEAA

Variants of: B1
Conditions: with nup58_human NUP58, Q9BVL2
Chain of nup58_human NUP58, Q9BVL2 (Q9BVL2 whole entry): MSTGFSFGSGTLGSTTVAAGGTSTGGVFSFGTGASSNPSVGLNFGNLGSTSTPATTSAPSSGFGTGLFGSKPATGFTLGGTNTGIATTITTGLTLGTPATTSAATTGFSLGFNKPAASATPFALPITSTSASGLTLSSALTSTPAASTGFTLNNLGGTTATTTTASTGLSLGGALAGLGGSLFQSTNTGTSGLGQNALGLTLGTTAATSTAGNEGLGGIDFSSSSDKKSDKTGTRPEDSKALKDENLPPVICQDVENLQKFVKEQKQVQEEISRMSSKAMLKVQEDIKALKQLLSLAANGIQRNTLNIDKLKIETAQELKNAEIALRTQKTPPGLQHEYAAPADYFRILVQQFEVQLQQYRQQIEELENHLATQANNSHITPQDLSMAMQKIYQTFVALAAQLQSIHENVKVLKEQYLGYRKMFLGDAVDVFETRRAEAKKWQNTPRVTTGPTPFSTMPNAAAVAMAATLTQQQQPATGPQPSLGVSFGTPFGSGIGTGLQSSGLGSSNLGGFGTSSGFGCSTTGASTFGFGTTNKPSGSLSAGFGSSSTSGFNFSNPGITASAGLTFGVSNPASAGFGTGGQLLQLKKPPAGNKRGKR

Variant	effect of a mutation on the interaction
T416A	with no effect

Variants of: B1
Conditions: with hgs_human HGS

Variant	effect of a mutation on the interaction
T416A	with no effect

Variants of: B1
Conditions: with nup62_human NUP62, P37198
Chain of nup62_human NUP62, P37198 (P37198 whole entry): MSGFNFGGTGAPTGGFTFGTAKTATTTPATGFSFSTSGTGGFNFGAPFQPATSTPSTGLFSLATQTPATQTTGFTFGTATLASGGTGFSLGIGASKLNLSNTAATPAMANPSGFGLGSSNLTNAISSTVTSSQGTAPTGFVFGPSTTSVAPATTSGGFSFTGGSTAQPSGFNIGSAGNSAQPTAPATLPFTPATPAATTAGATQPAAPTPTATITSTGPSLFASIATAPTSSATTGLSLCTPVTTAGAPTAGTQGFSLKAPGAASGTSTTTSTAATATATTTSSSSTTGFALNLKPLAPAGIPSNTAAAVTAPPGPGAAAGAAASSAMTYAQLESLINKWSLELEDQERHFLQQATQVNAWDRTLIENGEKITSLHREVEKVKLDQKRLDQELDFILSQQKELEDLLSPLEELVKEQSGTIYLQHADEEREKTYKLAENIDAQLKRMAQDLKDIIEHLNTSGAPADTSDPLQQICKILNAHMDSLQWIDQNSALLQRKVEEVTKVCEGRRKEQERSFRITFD

Variant	effect of a mutation on the interaction
T416A	with no effect

Variants of: B1
Conditions: with KRT15, P19012
Chain of KRT15, P19012 (P19012 whole entry): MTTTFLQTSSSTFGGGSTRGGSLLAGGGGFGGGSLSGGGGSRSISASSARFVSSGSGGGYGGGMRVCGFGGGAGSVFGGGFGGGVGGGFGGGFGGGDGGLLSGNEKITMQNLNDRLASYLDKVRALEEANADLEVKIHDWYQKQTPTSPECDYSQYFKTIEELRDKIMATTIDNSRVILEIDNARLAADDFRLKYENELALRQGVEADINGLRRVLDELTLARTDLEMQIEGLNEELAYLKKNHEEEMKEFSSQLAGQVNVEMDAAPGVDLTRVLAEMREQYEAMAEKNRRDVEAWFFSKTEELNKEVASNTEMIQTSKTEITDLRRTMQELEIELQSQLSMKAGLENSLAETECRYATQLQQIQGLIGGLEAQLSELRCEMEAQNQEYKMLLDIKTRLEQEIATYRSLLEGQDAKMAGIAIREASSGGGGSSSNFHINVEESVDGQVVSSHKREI

Variant	effect of a mutation on the interaction
T416A	with no effect

Variants of: B1
Conditions: with nup62_human NUP62, P37198
Remark: another data set of the same source

Variant	effect of a mutation on the interaction
R385K	with no effect

Variants of: B1
Conditions: with nup58_human NUP58, Q9BVL2
Remark: another data set of the same source

Variant	effect of a mutation on the interaction
R385K	with no effect

Variants of: B1
Conditions: with hgs_human HGS
Remark: another data set of the same source

Variant	effect of a mutation on the interaction
R385K	with no effect

Variants of: B1
Conditions: with KRT15, P19012
Remark: another data set of the same source

Variant	effect of a mutation on the interaction
R385K	with no effect

Variants of: B2
Conditions: with mylip_human MYLIP

Variant	effect of a mutation on the interaction
S198P	with no effect

Variants of: B3
Conditions: with traf1_human TRAF1, Q13077
Chain of traf1_human TRAF1, Q13077 (Q13077 whole entry): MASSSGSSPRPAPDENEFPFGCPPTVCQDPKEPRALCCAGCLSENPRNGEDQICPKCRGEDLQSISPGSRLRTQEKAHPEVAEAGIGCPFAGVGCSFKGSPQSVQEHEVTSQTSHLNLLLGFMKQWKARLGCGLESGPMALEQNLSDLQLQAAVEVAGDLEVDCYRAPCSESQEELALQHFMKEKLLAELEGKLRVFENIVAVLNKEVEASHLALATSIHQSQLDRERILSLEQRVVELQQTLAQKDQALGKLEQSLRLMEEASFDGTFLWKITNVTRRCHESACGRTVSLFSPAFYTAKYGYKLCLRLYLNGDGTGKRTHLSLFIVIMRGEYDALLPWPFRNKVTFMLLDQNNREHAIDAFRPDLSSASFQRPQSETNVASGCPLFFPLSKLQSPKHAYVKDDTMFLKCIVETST

Variant	effect of a mutation on the interaction
R229H	with no effect

Variants of: B4
Conditions: with eif1a_human EIF1AD

Variant	effect of a mutation on the interaction
A244P	with no effect
R348K	with no effect
H57Q	with no effect
C236R	with no effect
